The source of these data is paper PMC5939101 (Proceedings of the National Academy of Sciences of the …, 2018).

The experiment addresses T1, His-Ivy1 (recombinant wild-type Ivy1) (S. cerevisiae, UniProt Q04934 1-453).
T1 sequence: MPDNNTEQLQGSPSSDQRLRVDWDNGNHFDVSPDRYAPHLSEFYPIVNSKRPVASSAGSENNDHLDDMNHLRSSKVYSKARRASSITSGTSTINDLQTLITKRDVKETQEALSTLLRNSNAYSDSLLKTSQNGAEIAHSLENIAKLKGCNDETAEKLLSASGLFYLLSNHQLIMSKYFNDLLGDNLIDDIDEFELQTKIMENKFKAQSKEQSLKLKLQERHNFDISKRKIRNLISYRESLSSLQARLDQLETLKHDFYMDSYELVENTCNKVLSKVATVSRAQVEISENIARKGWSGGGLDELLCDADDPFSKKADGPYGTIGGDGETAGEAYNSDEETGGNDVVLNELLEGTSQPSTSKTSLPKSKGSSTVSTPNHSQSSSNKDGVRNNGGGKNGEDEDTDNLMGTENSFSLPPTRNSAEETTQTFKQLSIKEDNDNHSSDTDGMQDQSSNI
Nature of the experiment: pull-down.

B1: GST-Ypt7 (natural protein)
chain: MSSRKKNILKVIILGDSGVGKTSLMHRYVNDKYSQQYKATIGADFLTKEVTVDGDKVATMQVWDTAGQERFQSLGVAFYRGADCCVLVYDVTNASSFENIKSWRDEFLVHANVNSPETFPFVILGNKIDAEESKKIVSEKSAQELAKSLGDIPLFLTSAKNAINVDTAFEEIARSALQQNQADTEAFEDDYNDAINIRLDGENNSCSC
As for B1, the binding result is recorded as “binds”.
